Experiment: yeast display, Sf9 membrane polyspecificity reagent, FACS + sequencing; frameworks hold sequencing errors
How it was run: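 Synthetic nanobody libraries on Saccharomyces cerevisiae BJ5465 were galactose-induced for 36–48 hours, stained 1 hour at 4 °C with 10% biotinylated, detergent-solubilized Sf9 membrane reagent and enriched on streptavidin microbeads. FACS then separated cells into low and high (top ~1%) gates by anti-HA (expression) and streptavidin (reagent binding) fluorescence. Genes were colony-PCR amplified, MiSeq 2 × 250 sequenced and CDR-length filtered. A clone's polyreactivity label is that of its gate of origin.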

Sequence	polyreactivity (PSR sort gate)
QVQLVESGGGLVQAGGSLRLSCAASGSIFASNAMGWYRQAPGKQWELVAAINSGTRTKYADSVKGRFTISRDNAKNTVYLQMNSRKPEDTAVYYCAARFKGERGPAHYYWGQGTQVTVSS	high polyreactivity
QVQLVESGGGLVQAGGSLRLSCAASGRTFFYNTMGWYRQAPGKERELVAAITSSGGRTSYADSVKGRFTISRDNAKNTVYLQMNSLKPEDTAVYYCAALYSYYSLYDDYDYWGQGTQVTVSS	high polyreactivity
QVQLDESGGGLVQAGGSLRLSCAASGRTFGVYAMGWYRQAPGKERELVAAIRWSGGGTYYADSVKVRFTISRDNAKNTVYLQMNSLKPEDTAVYYCAATLENSPYTRYTDMYYWGQGTQVTVSS	low polyreactivity
QVQLVESGGGLVQAGGSLRLSCAASGFIFPYYAMGWYRQAPGKERELVAAITRSGGRTYYADSVKGRFTISRDNAKNTVYLQMNSLKPEDTAVYYCAVRYIRYRNLKYDFWGQGTHVTVSS	high polyreactivity
QVQLVESGGGLVQAGGSLRLSCAASGRTFRHYAMGWYRQAPGKEREFVAAISRSGGSTRYADSVKGRFTISRDNAKNTVYLQMNSLKPEDTAVYYCAATSRSYNDYDYWGQGTQVTVSS	high polyreactivity
QVQLVESGGGLVQAGGSLRLSCAASGRIFTTYALGWYRQAPGKERELVATITSGGDTSYADSVKGRFTISRDNAKNTVYLQMNSLKPEDTAVYYCNVGASLDQCSIPFEGYYYWGQGTQVTVSS	low polyreactivity
QGQLLESGGGLVQAGGSLRLSCAASGRTFRSYAMGWYRQAPGKESELVAASSQRGGSSFYADSVKGRFTISRDNAKNSVYLQMNSLKPEDTAVYYCANPVRSGYDYWGQGSQVTVSS	high polyreactivity
QVQLVESGGGLVQAGGSLRLSCAASGSIFVRNGMGWYRQAPGKERELVASITSGTITYYADSVKGRFTISRDNAKNTVYLQMNSLKPEDTAVYYCNAGWRSSRMEYWGQGTQVTVSS	high polyreactivity
QVQLVESGGGLVQAGGSLRLSCAASGSTFHHYAMGWYRQAPGKERELVAAITTSGGRTYYADSVKGRFTISRDNAKNTVYLQMNSLKPEDTAVYYCAADRFFYRGGYYYWGQGTQVTVSS	high polyreactivity
QVQLVESGGGLVQAGGSLRLSCAASGSISGWYAMGWYRQAPGKERELVADISSIAGSTYYADSVKGRFTISRDNAKNTVYLQMNSLKPEDTAVYYCAADDAAWPYSWWGFDYWGQGTQVTVSS	low polyreactivity
QVQLVESGGGLVHAGGSLRLSCAASGSIFKVYAMGWYRQAPGKERELVASITSGGRTYADSVKGRFTISRDNAKNTVYLQRNSLKPEDTAVYYCSARSRSKFYYWGQGTQVTVSS	high polyreactivity
QVQLVESGGGLVQAGGSLRLSCAASGRTFAFYAMGWYRQAPGKERELVASIRGGGGTNYADSVKGRFTISRDNAKNTVYLQMNSLKTEDTAVYYCAARGYGYRGYYYWGQGTQVTVSS	high polyreactivity
QFQLVESGGGLVQAGGSLRLSCAASGSILESNVMGWYRQAPGKERELVASISSSGVSTYADSVKGRFTISRDNAKNTVYLQMNSLKPEDNAVYYCAADRWYWTYALYYWGQGTQVTVSS	low polyreactivity
QVQLVESGGGLVQEGGSLRLSCAAYGFIFGDNALGWYRQAPGKERELVAGSTVSDGSTYYADSVKGRFTISRDNAKNTVYLLMNSLKPEDTAVYYCNAAGRYKPGAPYDYWGQGNQVTVSS	low polyreactivity
QVQLVESGGGLVQAGGSLRLSCAASGFTFPWNVMGGYRQAPGKERELVAAITYDGGGTYADSVKGRFTISRDNAKNTVYLQMNSLKPEDTAVYYCNADLIYGEEYDYWGQGTQVTVSS	low polyreactivity
QVQLVESGGGLVQAGGSLRLSCAASGRTFYIYAMGWYRQAPGKERELVAAISTRDTRTYYADSVKGRFTISRDNAKNTVYLQMNSLKPEDTAVYYCAADAVDRDSDYWGQGTQVTVSS	high polyreactivity
QVQLVESGGGLVQAGGSLRLSCAASGFILGTYAMGWYRQAPGKERELVAAISRSGGSTYYADSVKGRFTISRDNAKNSVYLQMNSLKPEDTAVYYCNTVRVHGFPIDRIYDYWGQGTQVTVSS	high polyreactivity
QVQLVESGGGLVQAGGSLRLTCADSGSIFYYYGMGWYRQAPGKERELVASITQSGVSTYYADSVKGRFTISRDNANNSVYLQMNSLKPEYTAVYYCAAGTVSGVDYWGQGTQVTVSS	high polyreactivity
QVQLVESGGGLVQAGGRLRLSCAASGATFYVYAMGWYRQAPGKERELVATIDSTDGDTYADSVKGRCTISRDNAKKTVYLQMNSLKPEDTAGYDCAATDLNIYYGYYDSWYWYELDYWGQGTQVTVSS	high polyreactivity
QVQLVESGGGLVQAGGSLRLSCAASGFTFNSYVMGWSRQAPGKERELVAAITRSGDRTYYADSVKGRFTISRDNAKNTVYLQMNSLKPEDTAVYYCAATWSKNYYGWYYYWGQGTQVTVSS	high polyreactivity
QVQVLESGGGLVQAGGSLRLSCAASGSIFDFYAMGWYRQAPGKDRELVAAISYRGGSTYADSVKGRFTISRDNAKNTVYLQMNSLKPEDTAVYYCAKVPDYRFEYWGQGTQVTVSS	high polyreactivity
QVQLVESGGGLVQAGGSLRLSCAASGRTFNTNAMGWYRQAPGKERELVAAISGSGVRTYYADSVKGRFTISRDNAKNTVYLQMNSLKPEDTAVYYCAARGQGGPYNYWGQGTQVTVSS	high polyreactivity

Sequence	polyreactivity (PSR sort gate)
QVQLVESGAGLVQAGGSLRLSCAPSGRIFYYAMGWYRQAPGKERELVAAISSGGSTNYADSVKGRFTISRDNSKNSVYLQMNSLKPEDTAVYYCAADRYWRWPRRDYWGQGTQVTVSS	low polyreactivity
QVQLEESGGGLVQAGGSLRLSCAASGFTFWRYGMGWYRQAPRKERELVASITSGGGTNYADSVKGRFTISRDNAKNTVYIQMNSLKPEDTAVYYCNAVFFYHGTKPAFISHDYWGQGTQVTVSS	low polyreactivity
QVQLVESGGGLVQAGGSLRLSCAASGRTFYPYAMGWYRQAPGKARELVASINWSGASTYYADSVKGRFTISRDNAKNTVYLQMNSLKPEDTAVYYCAARYTPRRYYYWGQGTHVTVSS	high polyreactivity
QVQLVESGGGLVQAGGSLRLSCAASGSTLFNYTMGWYRQAPGKESELVAAISSGGSTNYADSEKGRFTISRDNAKNTFYLQMNSLKPEDTAVYYCATDHDPWSWYRYDYWGQGTQVTVSS	low polyreactivity
QVQLVESGGGLVQAGGSLRLSCDASGRIFSRNSMGWYRQAPGKERELVAANTWRGGSTYYADSVKGRFTISRDNAKNTVYLQLNSLKPEDPAVYYCNRDYRQYGYAYSGRYYWGQGTQVTVSS	high polyreactivity
QVQLVESGGGLVQAGGSHRLSFAASGGIFRGYALGWNRQAPGKERELGATIRSSGRTNYADSVKGRFTIARDNAKNTVYLQMNCLKPDDTAVYYCNKRRWWQYDRWSDWVLGGDDYWGQGTQLTVSS	low polyreactivity
QVQLVESGGGLVQAGGSLRLSCAASGSIFLSNPMGWYRQAPGKERELVAAITSGGRTTYADSVKGRFTISRDNAKNTVYLQMNSLKPEDTAVYYCAARQRWYWRGYDYWGQGTQVTVSS	high polyreactivity
QVQLVESGGGLVQAGGSLRLSCAASGIISRVYAMGWYRQAPGKERELVAAISGSGGTTYYADSVKGRFTISRDNAKNTVYLQMNSLKPEDTAVYYCAARYKALYDYWGQGTQVTVSS	high polyreactivity
QVQLVESGGGLVQAGGSLRLSCAASGFTFYSYAMGWYRQAPGKERELVAAISWSGTRTYYADSVKGRFTISRDNAKNTVYLQMNSLKPEDTAVFYCAARGYRYGYGYWGQGTQVTVSS	high polyreactivity
QVQLVESGGGIVQAGGSLRLSCAASGITFGRYVMGWYRQAPGKERELVAAISRSGGSTYYADSVKGRFTISRDNAKNTVYLQMNSLKPEDTAVYYCAADLRQTGYGWYDYWGQGTQVTVSS	high polyreactivity
QVQLVESGGGLVQAGGSLRLSCAASGRIFTYYAMGWYRQAPGKERELVAAINWGVVTTYYADSVKGRFTISRDNAKNTVYLQMNSLKPEDSAVYYCAADWFAANYYVNPVSALYYWGQGTQVTVSS	low polyreactivity
QVQLVESGGGLVQAGGSLRLSCAASGSTFWPNAMGWYRQAPGKERELVAAISWSSSSGGRTYYADSVKGRFTISRDNAKNTVYLQMNSLKPEDTAVYYCNASYRDEDDYWGQGTQVTVSS	high polyreactivity
QVQLVESVGGLVQAGGSLRLSCASSGFIFATNTMGCYRQAPGKERALVAAMSRSGGSTYYADSVKGRFTISRDNAKNTVYLQMNSLKPEDTAVYYCAADVRLRSTRARFDYWGQGTQVTVSS	high polyreactivity
QVQLVESGGGLVQAGGSLRLSCAASGYTFYTNAMGWYIQAPGKERELVASIRSRGRSTYYADSVKGRFTISRDNAKNTVYLQMNSLKPEDTAVFYCAALPNIPAVYAYDYWGQGTQVTVSS	low polyreactivity
QVQLVESGGGLVQAGGSLRLSCAASGGIFGANAMGWYRQAPGKERELVAAITWRGGSTYYADSVKGRFTISRDNAKNTVYLQMNSLKPEDTAVYYCAKSFVRYKGRYYWGQGTQVTVSS	high polyreactivity
QVQLVESVGGLVQAGGILRLSCAASGNTFPAYAMGWYRQAPGKERELVATISWSTGSTNYADSVKGRFTISRDTAKNTVYLQMNSLKPEDTAVYYCAASYWCYEYDYWGLGTQVTVSS	low polyreactivity
QVHLVESGGGLVQAGGSLHLSCAPSGRTFGYYAKGGYRQAPGKEREFVAAISHSAGSTSYADSVKGRFTLSRDNAKNTVYLQMNSLKPEDTAVYYCATPSQLHPYEYWGQGSQVTVSS	low polyreactivity
QVQLVEAGGGLVQAGGSLRLSCAASGRIFVYYTMGWYRQAPGKERELVAAIIGGGSTNYADSVKGRFTISRDNAKNTVYLQMNSLKPEDTAVYDCAAVRYRYSYVSHSRIYDYWGQGTQVTVSS	high polyreactivity
HDQLVESGGGLVQAGGSLRLSCAASGSTFTINVMGWYRQAPGKERELVAAINGGGRTNYADSVKGRFTISRDNAKNTVYVQMNILKPEDTAVYYCAADGLSNVRQMDYWGQGTQVTVSS	low polyreactivity
QVQLVESGGGLVQAGGSLRLSCAASGRTFGLYAMGWYRQAPGKERELVATITTSDIMTYYADSVKGRFTISRDNAKNTVYLQMNRLKPEDTAVYYCATGGYDDFSSRPANDYWGQGTQVTVSS	low polyreactivity
QVQLVESGGGLVQAGGSLRLSCAASGRTSPYYTMGWYRQAPGKERELVAASGSRTDYADSVKGRFTISRDNAKNTVYLQMNSLKPEDTAVYYCNAYRYRQSSSDKYGYWGQGTQVTVSS	low polyreactivity

Reference: the nanobody polyreactivity screen of Harvey et al. (2022)
